B1: Arabidopsis thaliana S-nitrosoglutathione reductase (GSNOR), recombinant His6-GSNOR, reduced (enzyme, UniProt Q96533 1-379, looked up)
chain: MATQGQVITCKAAVAYEPNKPLVIEDVQVAPPQAGEVRIKILYTALCHTDAYTWSGKDPEGLFPCILGHEAAGIVESVGEGVTEVQAGDHVIPCYQAECRECKFCKSGKTNLCGKVRSATGVGIMMNDRKSRFSVNGKPIYHFMGTSTFSQYTVVHDVSVAKIDPTAPLDKVCLLGCGVPTGLGAVWNTAKVEPGSNVAIFGLGTVGLAVAEGAKTAGASRIIGIDIDSKKYETAKKFGVNEFVNPKDHDKPIQEVIVDLTDGGVDYSFECIGNVSVMRAALECCHKGWGTSVIVGVAASGQEISTRPFQLVTGRVWKGTAFGGFKSRTQVPWLVEKYMNKEIKVDEYITHNLTLGEINKAFDLLHEGTCLRCVLDTSK
notes: S-nitrosoglutathione reductase (GSNOR; glutathione-dependent formaldehyde dehydrogenase, class III alcohol dehydrogenase), Arabidopsis thaliana, At5g43940; Expressed from pDEST17 (Gateway); Run in buffer with 10 mM DTT; also called AtGSNOR; GSNO-reductase; source: E. coli BL21 DE3 pLysS, purified (Ni-NTA under reducing condition, followed by Äkta purification); not shown: His6, N-terminal, kept
B2: Arabidopsis thaliana S-nitrosoglutathione reductase (GSNOR), recombinant His6-GSNOR, oxidized with 1 mM H2O2 (enzyme, UniProt Q96533 1-379, looked up)
chain: MATQGQVITCKAAVAYEPNKPLVIEDVQVAPPQAGEVRIKILYTALCHTDAYTWSGKDPEGLFPCILGHEAAGIVESVGEGVTEVQAGDHVIPCYQAECRECKFCKSGKTNLCGKVRSATGVGIMMNDRKSRFSVNGKPIYHFMGTSTFSQYTVVHDVSVAKIDPTAPLDKVCLLGCGVPTGLGAVWNTAKVEPGSNVAIFGLGTVGLAVAEGAKTAGASRIIGIDIDSKKYETAKKFGVNEFVNPKDHDKPIQEVIVDLTDGGVDYSFECIGNVSVMRAALECCHKGWGTSVIVGVAASGQEISTRPFQLVTGRVWKGTAFGGFKSRTQVPWLVEKYMNKEIKVDEYITHNLTLGEINKAFDLLHEGTCLRCVLDTSK
modifications: oxidized by 1 mM H2O2 (oxidative modifications of cysteine residues; which residues at this concentration is not stated)
notes: S-nitrosoglutathione reductase (GSNOR; glutathione-dependent formaldehyde dehydrogenase, class III alcohol dehydrogenase), Arabidopsis thaliana, At5g43940; Same construct as m1, treated with H2O2 (200 ug GSNOR, 1 mM H2O2) and run without DTT; Mass spectrometry at 0.5 and 5 mM H2O2 found reversible and sulfinic or sulfonic modifications on most detected cysteines, among them Cys47 and Cys177; also …

Target: the molecule itself
Test: SEC-MALS; size exclusion chromatography (Superdex 200 10/300 GL, 4°C) with static light scattering (right-angle, Viscotek TDA 305, 30°C); 50 mM Tris-HCl pH 8.0, 200 mM NaCl, with 10 mM DTT (reduced sample) or without (sample oxidized by 1 mM H2O2); approximately 1.5 mg/ml, 100 ul applied

Protein | stoichiometry N
B1 | 2
B2 | 2
